According to the nanobody polyreactivity screen of Harvey et al. (2022):

Assay: yeast display, Sf9 membrane polyspecificity reagent, FACS + sequencing; frameworks hold sequencing errors
Outline: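 Synthetic nanobody libraries on Saccharomyces cerevisiae BJ5465 were galactose-induced for 36–48 hours, stained 1 hour at 4 °C with 10% biotinylated, detergent-solubilized Sf9 membrane reagent and enriched on streptavidin microbeads. FACS then separated cells into low and high (top ~1%) gates by anti-HA (expression) and streptavidin (reagent binding) fluorescence. Genes were colony-PCR amplified, MiSeq 2 × 250 sequenced and CDR-length filtered. A clone's polyreactivity label is that of its gate of origin.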

Sequence | polyreactivity (PSR sort gate)
QVQLVESGGGLVQAGGSLRLSCPASGYTFYKNAMGWYRQPPGKERELVAAISYSGGRTYYADSVKGRFTISRDNAKNTVYLQMNSLKPEDTAVYYCAKATRVITDDGSYGYWGQGSQVTVSS | high polyreactivity
QVQLVESGGGLVQAGGSLRLSCPASVLILVYYAMGWYRQAPGKERELVAAINPGGSTKYADSVKGRFTISRDNAKNTVYLQMNSLKQEDTEVYYCNADGEGADSDYDYWGQGTKVTVSS | low polyreactivity
QVQLVESGGGLVQAGGSLRLSCPAYGYTILPNAMGWYRQAPGKEREFVAAISYSGGRTYYADSVKGRFTISRDNAKNTVYLQMNSLKPEDTAVYYCATELYGYRYDYWGQGTQVTVSS | low polyreactivity
QVQLVESGGGLVQAGGSLRLSCPPSGTFSFYAMGWYRQAPGKERELVATIRSGGRTYYADSVKGRFTISRDNAKNTVYLQMNSLKPEDTAVYYCAAASTKLSGSDYDYWGQGTQVTVSS | high polyreactivity
QVQLVESGGGLVQAGGSLRLSCSASGFIFGPNAMGWYRQAPGKEMELVAAISWMGSSTYYADSVKGRFTISRDNANNTVYLQMNSLKPEDTAVYYCAADSSERRLLDFDYWGQGTNVTVSS | low polyreactivity
QVQLVESGGGLVQAGGSLRLSCSASGFIFPRYTMGWYRQAPGKERELVAGITLRGGSTYYADSVKGRFTISRDNAKNTVYLQMNSLKPDDTAVYYCARGISRGRSFGIGYDYWGQGTQVTVSS | low polyreactivity
QVQLVESGGGLVQAGGSLRLSCSASGFTFRYYTMGWYRQAPGKERELVAAISRSSGSRTYYADSVKGRFTISRDNAKNTVYLQMNSLKPEDTAVYYCNADPAYQFDYWGQGTQVTVSS | high polyreactivity
QVQLVESGGGLVQAGGSLRLSCSASGFTFYRNAMGWYRQAPGKERELVASISRSGGSTYYADSVKGRFTISRDNAKNTVYLQMNSLKPEDTAVYYCAADLCWIYPHKYYYWGQGTQVTVSS | high polyreactivity
QVQLVESGGGLVQAGGSLRLSCSASGGTFEFYTMGWYRQAPGKERELVAAISWSGSSTYYADSVKGRFTISRDNAKNTVYLQMNSLKPEDTAVYYCAAYPRPYIGYTDGYVWYEFDYWGQGTQVTVSS | low polyreactivity
QVQLVESGGGLVQAGGSLRLSCSASGIIFSTYAKGWYRQAPGKERELVAAITSTGSTNYADSVKGRFTISRDNAKNTVYLQLNSLKPEDTAVYYCAARYAGPSPTDTGHDYWGQGTQVTVSS | low polyreactivity
QVQLVESGGGLVQAGGSLRLSCSASGLTFKENAMGWYRQAPGTERELVAAISKGGGSTFYADSVKGRFTISRDNAKNTVYLQMNTLKPEDTAVYYCNADVGYRGGEEDYWGQGTQVTVSS | low polyreactivity
QVQLVESGGGLVQAGGSLRLSCSASGLTFNFNAMGWYRQAPGKERELVAAISYRAGSTYYADSVKGRFTISRDNAKNTVYLQMNSLKPEDTAVYYCAADGYYYVKSGTYWSDYWGQGTQVTVSS | low polyreactivity
QVQLVESGGGLVQAGGSLRLSCSASGNTIRYYALGWYRQAPGKERELVATITSGGRTYYADSVKGRFTISRDNAKNTVYLQMNSLKPEDTAVYYCAAGSRSDARRYYYWGQGTQVTVSS | low polyreactivity
QVQLVESGGGLVQAGGSLRLSCSASGRIFGRYAMGWYRQAPGKERELVAAISASGGSTYYADSVKGRFTISRDNAKNTVYLQMNSLKPEDTAVYYCAADAPAEYYWGQGTQVSVSS | low polyreactivity
QVQLVESGGGLVQAGGSLRLSCSASGRIFRFYGMGWYRQAPGKDRELVAAISSRGGSTYYADSVKGRFTISRDNAKNTVYLQMNSLKPEDSGVYYCAASGAFWYPYDYWGQGTQVTVSS | high polyreactivity
QVQLVESGGGLVQAGGSLRLSCSASGRIISFYVMGWYRQAPGKDRELVAAISLSGGSTYYADSVKGRFTISRDNAKNTVYLQMNSLKPEDTAVYYCAADQTLVGLPYNYWGQGTQLTVSS | high polyreactivity
QVQLVESGGGLVQAGGSLRLSCSASGRNFKYYAMGWYRKAPGKERELVAAITSTGGSTYYADSVKGRFTISRDNGKNTVYLQLNSLKPEDTAVYYCNRDTQYRDRSDNHWGQGTQVTVSS | high polyreactivity
